Reference: IntAct's records for PubMed 31515488

B1: Adenylate kinase 8 (Homo sapiens), Q96MA6 (parent)
chain: MDATIAPHRIPPEMPQYGEENHIFELMQNMLEQLLIHQPEDPIPFMIQHLHRDNDNVPRIVILGPPASGKTTIAMWLCKHLNSSLLTLENLILNEFSYTATEARRLYLQRKTVPSALLVQLIQERLAEEDCIKQGWILDGIPETREQALRIQTLGITPRHVIVLSAPDTVLIERNLGKRIDPQTGEIYHTTFDWPPESEIQNRLMVPEDISELETAQKLLEYHRNIVRVIPSYPKILKVISADQPCVDVFYQALTYVQSNHRTNAPFTPRVLLLGPVGSGKSLQAALLAQKYRLVNVCCGQLLKEAVADRTTFGELIQPFFEKEMAVPDSLLMKVLSQRLDQQDCIQKGWVLHGVPRDLDQAHLLNRLGYNPNRVFFLNVPFDSIMERLTLRRIDPVTGERYHLMYKPPPTMEIQARLLQNPKDAEEQVKLKMDLFYRNSADLEQLYGSAITLNGDQDPYTVFEYIESGIINPLPKKIP
B2: Placental protein 13-like (Homo sapiens), Q8TCE9 (parent)
chain: MSSLPVPYTLPVSLPVGSCVIITGTPILTFVKDPQLEVNFYTGMDEDSDIAFQFRLHFGHPAIMNSCVFGIWRYEEKCYYLPFEDGKPFELCIYVRHKEYKVMVNGQRIYNFAHRFPPASVKMLQVFRDISLTRVLISD
B3: Zinc finger and BTB domain-containing protein 9 (Homo sapiens), Q96C00 (parent)
chain: METPTPLPPVPASPTCNPAPRTIQIEFPQHSSSLLESLNRHRLEGKFCDVSLLVQGRELRAHKAVLAAASPYFHDKLLLGDAPRLTLPSVIEADAFEGLLQLIYSGRLRLPLDALPAHLLVASGLQMWQVVDQCSEILRELETSGGGISARGGNSYHALLSTTSSTGGWCIRSSPFQTPVQSSASTESPASTESPVGGEGSELGEVLQIQVEEEEEEEEDDDDEDQGSATLSQTPQPQRVSGVFPRPHGPHPLPMTATPRKLPEGESAPLELPAPPALPPKIFYIKQEPFEPKEEISGSGTQPGGAKEETKVFSGGDTEGNGELGFLLPSGPGPTSGGGGPSWKPVDLHGNEILSGGGGPGGAGQAVHGPVKLGGTPPADGKRFGCLCGKRFAVKPKRDRHIMLTFSLRPFGCGICNKRFKLKHHLTEHMKTHAGALHACPHCGRRFRVHACFLRHRDLCKGQGWATAHWTYK
B4: UPF0488 protein C8orf33 (Homo sapiens), Q9H7E9 (parent)
chain: MAALGHLAGEAAAAPGPGTPCASRGARLPGPVSSARNPSTVCLCPEQPTCSNADSRAHPLGDEGGTASKKQKNKKKTRNRASVANGGEKASEKLAPEEVPLSAEAQAQQLAQELAWCVEQLELGLKRQKPTPKQKEQAIGAIRTLRSKRTPLPRKRQLMHSLFGDYRAQMEAEWREALRALRAAAYSAQVQPVDGATRKKSQRVCRPRSIWRAKATLDMPDEEFRFNFF

Variants of: B1
Details: with mcm7_human MCM7, P33993
mcm7_human MCM7, P33993, sequence (P33993 whole entry): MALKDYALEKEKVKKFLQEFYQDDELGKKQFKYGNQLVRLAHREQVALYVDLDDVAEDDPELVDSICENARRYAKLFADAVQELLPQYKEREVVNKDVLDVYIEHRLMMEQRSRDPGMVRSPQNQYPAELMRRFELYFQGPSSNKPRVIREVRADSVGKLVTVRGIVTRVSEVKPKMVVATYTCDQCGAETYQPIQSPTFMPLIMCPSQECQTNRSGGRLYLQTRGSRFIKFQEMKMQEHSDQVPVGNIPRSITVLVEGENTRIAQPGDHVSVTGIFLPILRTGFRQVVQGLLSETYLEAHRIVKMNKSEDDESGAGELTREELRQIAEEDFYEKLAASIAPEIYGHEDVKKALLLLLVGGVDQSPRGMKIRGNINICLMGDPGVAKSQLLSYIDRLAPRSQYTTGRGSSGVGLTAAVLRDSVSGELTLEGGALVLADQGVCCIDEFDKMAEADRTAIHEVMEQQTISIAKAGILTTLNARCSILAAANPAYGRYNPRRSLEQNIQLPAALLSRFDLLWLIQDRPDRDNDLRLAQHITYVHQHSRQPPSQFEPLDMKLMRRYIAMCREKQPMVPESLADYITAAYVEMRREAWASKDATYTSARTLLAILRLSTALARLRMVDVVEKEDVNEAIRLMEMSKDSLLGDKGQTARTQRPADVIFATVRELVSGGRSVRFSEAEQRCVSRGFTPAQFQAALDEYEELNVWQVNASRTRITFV
V227I was tested, and the “effect of a mutation on the interaction” value was “with no effect”.
In the case of R339C, the “effect of a mutation on the interaction” value is reported as “disrupting interaction strength”.
With T169K the “effect of a mutation on the interaction” value was “with no effect”.

Variants of: B2
Details: with trim1_human MID2, Q9UJV3
trim1_human MID2, Q9UJV3, sequence (Q9UJV3 whole entry): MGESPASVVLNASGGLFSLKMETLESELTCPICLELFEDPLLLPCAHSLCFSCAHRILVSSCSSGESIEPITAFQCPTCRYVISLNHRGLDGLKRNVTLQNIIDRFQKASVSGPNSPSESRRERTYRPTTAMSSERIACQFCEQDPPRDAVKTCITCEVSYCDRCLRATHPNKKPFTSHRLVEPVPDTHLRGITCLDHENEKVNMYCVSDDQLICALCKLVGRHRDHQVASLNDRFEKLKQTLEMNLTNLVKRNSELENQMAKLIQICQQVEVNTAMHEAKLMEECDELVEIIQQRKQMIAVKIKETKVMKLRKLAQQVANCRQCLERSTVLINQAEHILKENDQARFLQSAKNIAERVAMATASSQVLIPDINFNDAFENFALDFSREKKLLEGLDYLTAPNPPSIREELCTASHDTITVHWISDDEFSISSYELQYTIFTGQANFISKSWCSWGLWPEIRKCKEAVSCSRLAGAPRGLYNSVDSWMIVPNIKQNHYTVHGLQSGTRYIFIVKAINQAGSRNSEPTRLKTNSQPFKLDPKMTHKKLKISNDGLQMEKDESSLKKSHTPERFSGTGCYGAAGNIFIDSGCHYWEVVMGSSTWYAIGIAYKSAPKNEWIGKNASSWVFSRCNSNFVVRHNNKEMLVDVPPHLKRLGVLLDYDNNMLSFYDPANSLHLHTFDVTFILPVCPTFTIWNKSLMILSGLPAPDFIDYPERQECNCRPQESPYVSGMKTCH
M123T was tested, and the “effect of a mutation on the interaction” value was “disrupting interaction strength”.

Variants of: B2
Details: with ikzf3_human IKZF3, Q9UKT9
ikzf3_human IKZF3, Q9UKT9, sequence (Q9UKT9 whole entry): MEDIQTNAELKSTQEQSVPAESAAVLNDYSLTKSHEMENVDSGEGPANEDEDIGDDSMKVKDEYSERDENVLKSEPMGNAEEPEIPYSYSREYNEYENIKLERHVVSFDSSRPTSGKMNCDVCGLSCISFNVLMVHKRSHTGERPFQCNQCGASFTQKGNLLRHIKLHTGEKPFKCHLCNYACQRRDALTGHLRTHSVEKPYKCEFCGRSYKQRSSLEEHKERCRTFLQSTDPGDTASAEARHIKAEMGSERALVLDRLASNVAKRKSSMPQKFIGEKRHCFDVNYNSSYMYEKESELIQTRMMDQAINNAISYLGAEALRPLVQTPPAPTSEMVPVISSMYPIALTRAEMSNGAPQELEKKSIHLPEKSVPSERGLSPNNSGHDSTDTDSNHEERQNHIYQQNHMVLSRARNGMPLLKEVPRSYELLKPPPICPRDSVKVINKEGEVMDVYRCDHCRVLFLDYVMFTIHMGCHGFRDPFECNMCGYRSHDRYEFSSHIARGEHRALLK
With M123T the “effect of a mutation on the interaction” value was “disrupting interaction strength”.

Variants of: B2
Details: with itf2_human TCF4, P15884
itf2_human TCF4, P15884, sequence (P15884 whole entry): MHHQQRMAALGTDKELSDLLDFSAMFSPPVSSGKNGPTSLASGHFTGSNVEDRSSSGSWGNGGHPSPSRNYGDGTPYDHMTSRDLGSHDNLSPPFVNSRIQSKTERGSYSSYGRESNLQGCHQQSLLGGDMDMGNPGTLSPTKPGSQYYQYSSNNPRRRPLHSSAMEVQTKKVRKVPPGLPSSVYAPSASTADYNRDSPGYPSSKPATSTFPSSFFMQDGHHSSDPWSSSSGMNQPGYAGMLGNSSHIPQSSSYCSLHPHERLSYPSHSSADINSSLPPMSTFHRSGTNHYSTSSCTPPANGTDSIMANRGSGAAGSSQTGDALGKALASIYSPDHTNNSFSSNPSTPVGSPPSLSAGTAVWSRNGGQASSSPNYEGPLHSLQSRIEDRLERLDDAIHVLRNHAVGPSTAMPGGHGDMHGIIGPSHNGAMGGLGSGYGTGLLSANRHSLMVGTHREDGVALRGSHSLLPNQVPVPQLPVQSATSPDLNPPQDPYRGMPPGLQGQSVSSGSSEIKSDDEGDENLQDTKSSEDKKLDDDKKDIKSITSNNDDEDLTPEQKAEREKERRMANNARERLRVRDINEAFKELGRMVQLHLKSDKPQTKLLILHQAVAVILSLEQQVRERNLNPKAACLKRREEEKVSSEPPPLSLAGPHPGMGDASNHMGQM
M123T was tested, and the “effect of a mutation on the interaction” value was “disrupting interaction strength”.

Variants of: B2
Details: with gfap_human GFAP
M123T was tested, and the “effect of a mutation on the interaction” value was “disrupting interaction strength”.

Variants of: B3
Details: with pin4_human PIN4, Q9Y237
pin4_human PIN4, Q9Y237, sequence (Q9Y237 whole entry): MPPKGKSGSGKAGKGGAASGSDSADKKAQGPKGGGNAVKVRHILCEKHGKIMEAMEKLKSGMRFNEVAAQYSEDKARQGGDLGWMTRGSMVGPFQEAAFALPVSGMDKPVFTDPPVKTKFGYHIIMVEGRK
For S173C, the “effect of a mutation on the interaction” value was “with no effect”.

Variants of: B3
Details: with if4e2_human EIF4E2, O60573
if4e2_human EIF4E2, O60573, sequence (O60573 whole entry): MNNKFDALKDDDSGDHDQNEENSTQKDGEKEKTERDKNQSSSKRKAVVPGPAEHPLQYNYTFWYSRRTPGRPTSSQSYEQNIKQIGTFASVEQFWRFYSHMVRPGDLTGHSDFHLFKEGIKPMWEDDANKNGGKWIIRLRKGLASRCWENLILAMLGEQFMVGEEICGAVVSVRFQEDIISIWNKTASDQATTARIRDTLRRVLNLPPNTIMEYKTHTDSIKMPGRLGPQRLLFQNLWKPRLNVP
For S173C, the “effect of a mutation on the interaction” value was “with no effect”.

Variants of: B3
Details: with mo4l1_human MORF4L1, Q9UBU8
mo4l1_human MORF4L1, Q9UBU8, sequence (Q9UBU8 whole entry): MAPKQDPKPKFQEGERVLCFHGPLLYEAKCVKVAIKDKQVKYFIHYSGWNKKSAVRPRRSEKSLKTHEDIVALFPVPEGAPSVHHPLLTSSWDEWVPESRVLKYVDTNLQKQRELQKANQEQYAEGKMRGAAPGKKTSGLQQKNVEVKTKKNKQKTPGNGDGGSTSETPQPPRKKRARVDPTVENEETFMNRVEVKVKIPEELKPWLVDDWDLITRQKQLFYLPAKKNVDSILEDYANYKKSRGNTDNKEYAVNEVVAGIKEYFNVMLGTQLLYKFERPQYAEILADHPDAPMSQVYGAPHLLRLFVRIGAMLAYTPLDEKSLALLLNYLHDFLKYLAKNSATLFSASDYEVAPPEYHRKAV
In the case of S173C, the “effect of a mutation on the interaction” value is reported as “with no effect”.

Variants of: B4
Details: with ldoc1_human LDOC1, O95751
ldoc1_human LDOC1, O95751, sequence (O95751 whole entry): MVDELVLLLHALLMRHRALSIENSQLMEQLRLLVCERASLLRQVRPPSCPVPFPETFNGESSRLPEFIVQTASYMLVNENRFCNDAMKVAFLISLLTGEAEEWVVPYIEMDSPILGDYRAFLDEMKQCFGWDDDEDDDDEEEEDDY
In the case of G25R, the “effect of a mutation on the interaction” value is reported as “with no effect”.

Variants of: B4
Details: with cep70_human CEP70, Q8NHQ1
cep70_human CEP70, Q8NHQ1, sequence (Q8NHQ1 whole entry): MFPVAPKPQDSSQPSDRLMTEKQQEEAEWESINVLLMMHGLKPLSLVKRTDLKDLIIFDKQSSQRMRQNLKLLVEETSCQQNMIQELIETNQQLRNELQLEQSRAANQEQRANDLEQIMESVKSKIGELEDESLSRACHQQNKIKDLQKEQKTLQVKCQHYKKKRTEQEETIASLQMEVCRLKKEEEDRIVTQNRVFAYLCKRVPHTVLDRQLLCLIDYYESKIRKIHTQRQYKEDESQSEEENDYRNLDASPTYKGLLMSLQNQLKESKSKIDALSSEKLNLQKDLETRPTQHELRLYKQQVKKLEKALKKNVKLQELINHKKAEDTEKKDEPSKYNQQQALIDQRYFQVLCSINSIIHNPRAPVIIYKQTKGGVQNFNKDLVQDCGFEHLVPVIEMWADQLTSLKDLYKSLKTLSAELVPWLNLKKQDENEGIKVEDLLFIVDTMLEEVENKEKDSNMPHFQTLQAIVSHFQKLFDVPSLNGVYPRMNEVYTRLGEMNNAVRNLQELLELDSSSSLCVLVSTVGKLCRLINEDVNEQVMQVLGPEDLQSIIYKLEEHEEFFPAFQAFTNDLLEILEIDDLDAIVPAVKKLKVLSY
For G25R, the “effect of a mutation on the interaction” value was “with no effect”.
